pKd: −log10 of the molar value.
Target: recombinant SARS-CoV-2 RBD, Prototype (SARS-CoV-2, prototype) (UniProt P0DTC2)
Experiment: BLI

In the case of NIH-CoVnb-112 (VHH), the pKd was 8.80 and the koff was 0.000236 s⁻¹.

Reference: article PMC8597880
